Results from the supplement of paper PMC10724198.
± gives the standard deviation of the averaged measurements.

system: Saccharomyces cerevisiae; assay: protein stability index of tFT-peptide fusion (C-terminal peptide) (PSI (0-1 scale)); higher = more stable (slower turnover); conditions: genetic background: wild type; temperature: 30 C
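Also: PSI is a weighted mean of sequencing reads over stability bins, variants kept only with over 10 reads, mCherry proximal and sfGFP distal, peptide attached via GGGS linker.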

Sequence | protein stability index
IGCCSGYGGERG | 0.691 ± 0.018
GDLYWLRNAMSL | 0.731 ± 0.012
VFDCLCGLRPGF | 0.632 ± 0.026
DLGLEVVSFLKF | 0.741 ± 0.068
ICRGLTVPGVAI | 0.612 ± 0.0095
RSRYWRTHGKVN | 0.557 ± 0.028
PPPSPTSPPPPS | 0.69 ± 0.018
CGMIQDKCEGEI | 0.738 ± 0.049
TLVLQFGRKRFG | 0.629 ± 0.013
SLLHGVFFWVLT | 0.572 ± 0.013
PRPLSPLPPSAL | 0.66 ± 0.05
VMVNTAWERRKR | 0.673 ± 0.065
LVSHVPLLPMTP | 0.776 ± 0.03
EGRMEAGVEGNS | 0.657 ± 0.053
SLDGTVHARRAH | 0.695 ± 0.07
VPPKHLYPLPPP | 0.612 ± 0.007
AFYGDNNTVERM | 0.762 ± 0.053
KQANTKINSQKT | 0.712 ± 0.036
EKKRRKKGEKRR | 0.712 ± 0.17
PPSSPPLAPPFL | 0.709 ± 0.029
SRARPPLLPFPP | 0.615 ± 0.061
RCTQCFSPFSTD | 0.7221 ± 0.0052
ASGGLVGAWVCV | 0.675 ± 0.0091
HGVSERPSISEY | 0.6797 ± 0.0066
LSFLSDVRHIRE | 0.643 ± 0.1
PSIPRTSTRPTL | 0.706 ± 0.037

Sequence | protein stability index
LPSPPVSIPYPS | 0.671 ± 0.029
HILESKKAGPGD | 0.635 ± 0.053
PKEQTHKKQHNI | 0.56 ± 0.039
RLCDAAVGPEGG | 0.674 ± 0.05
PSPPLPPPYPLP | 0.716 ± 0.084
EVTAQLCADKEP | 0.564 ± 0.12
SIQCHNTKKFYE | 0.715 ± 0.032
VKRSGSDGALHR | 0.685 ± 0.021
HRPTRLIKKNLA | 0.732 ± 0.033
SPVPVTFSLLTR | 0.698 ± 0.0082
LFLYPFCVGGFL | 0.714 ± 0.016
HDVGEYVKKNRF | 0.653 ± 0.011
EISPQGAKWQEG | 0.655 ± 0.048
PPFVPGEVRRTV | 0.6867 ± 0.0036
TTQEPTPLAQEQ | 0.713 ± 0.024
PPPAPPTPPSPP | 0.628 ± 0.028
VCSLALSRPSTG | 0.6564 ± 0.0018
DLSAGPPFLLIR | 0.6717 ± 0.0038
PPAPSPPLPSLA | 0.694 ± 0.037
GFLCARGAHSMT | 0.704 ± 0.013
SKLEREKQNKGY | 0.634 ± 0.021
IGGVSHEMKAKR | 0.619 ± 0.013
ENDKPITRKETQ | 0.605 ± 0.07
PPPPPPSPLGPP | 0.674 ± 0.057
KKEQKRKKKEKQ | 0.758 ± 0.098
CDSVATFCLRLF | 0.6234 ± 0.0031

Sequence | protein stability index
NKNTEMNKTQWR | 0.702 ± 0.03
CLSFCFGISVFD | 0.616 ± 0.017
FCWVVFHSGISS | 0.713 ± 0.085
CLRGTYPRLPLT | 0.6838 ± 0.0035
GAEQSTDEFIRG | 0.7058 ± 0.0012
LNHSLLHILSRV | 0.656 ± 0.022
KTEKTKIKKKRM | 0.684 ± 0.0075
ESRGVRAGTWQG | 0.694 ± 0.05
VLAWVPNFALLP | 0.677 ± 0.063
LPPPPPCPPSPL | 0.671 ± 0.024
RVRWRSQRSMVV | 0.689 ± 0.025
LFLPDPHSLTFH | 0.744 ± 0.044
IKGHLYDFPPGT | 0.792 ± 0.1
PLRVATTLGYPL | 0.649 ± 0.081
RKISLNSPPRES | 0.757 ± 0.1
PVPLPSSSPSPY | 0.663 ± 0.046
PGDSALVLVTPQ | 0.703 ± 0.069
EKCDYVIPVGLL | 0.702 ± 0.035
SPSHSVSGPLSF | 0.648 ± 0.014
GGFVISGDVTVG | 0.688 ± 0.038
SGFQAPGSVASE | 0.623 ± 0.014
PAVPPGGDPTCP | 0.689 ± 0.0085
VSAYLKNSGYRE | 0.6955 ± 0.0061
PPPPPPTRCHTP | 0.728 ± 0.056
GVGGGRRGGGGG | 0.6409 ± 0.0036
LPPPLPPCPSGP | 0.77 ± 0.048

Sequence | protein stability index
PRGLRIHSRLRG | 0.678 ± 0.01
ALSTFTGFLRIP | 0.55 ± 0.01
MSSGGSIYMVRT | 0.723 ± 0.018
GRKVPQRRQSAR | 0.749 ± 0.015
PVPLEAPSPPPP | 0.671 ± 0.022
PQRTTPPRRHTA | 0.717 ± 0.032
RPRKTVTDLMAG | 0.663 ± 0.01
EIGSWKTISILV | 0.487 ± 0.024
VRGKSARRSSRR | 0.665 ± 0.029
CSSTTFADRRFM | 0.753 ± 0.062
WGWGRWEMVGRT | 0.695 ± 0.011
TKKNDKIRIQKS | 0.741 ± 0.043
PLRKGVHTHNNK | 0.632 ± 0.053
YTMGGSLSVSLD | 0.817 ± 0.16
PPRPPSPPASRA | 0.77 ± 0.076
PLPFSPPFPPSS | 0.732 ± 0.055
TLEHRHPAIHPE | 0.723 ± 0.046
KACVKRVYCILE | 0.58 ± 0.015
SRGRAGESRPRG | 0.712 ± 0.069
PSLGLSIPTPLP | 0.6849 ± 0.0046
VQLSISCEPPSN | 0.7391 ± 0.007
PRPPAGSFPSSL | 0.7 ± 0.053
PPPPLPPCTPAT | 0.6797 ± 0.0047
SLDISDCGFCLH | 0.697 ± 0.018
LPRPLSPPLPSP | 0.702 ± 0.042
AKSKALGLSPRS | 0.649 ± 0.046

Sequence | protein stability index
YSSFRSVNWVFP | 0.6838 ± 0.0033
WLYGEFGALVVD | 0.685 ± 0.033
LLLSALLLSASP | 0.625 ± 0.0083
GTVTVLVGVHWE | 0.539 ± 0.008
MVGLTTEFGSDG | 0.667 ± 0.015
VGAIGYWCPEWR | 0.651 ± 0.019
VGKHNLYSKNWR | 0.66 ± 0.016
SGRTQPRGKHNA | 0.683 ± 0.016
LGTLLWWGAGRG | 0.708 ± 0.02
GGGSRLWGGGRV | 0.728 ± 0.028
GSRAECWEVGGV | 0.6742 ± 0.004
FLYDPVMLGLAC | 0.469 ± 0.053
RLGYSWGECPGG | 0.699 ± 0.012
WGGGGRLAGLLG | 0.687 ± 0.037
SCVSDAKMGGLG | 0.655 ± 0.084
SESKMRKVEPKM | 0.7459 ± 0.00085
KKWRKKTEHDKE | 0.729 ± 0.028
VMNGGCFGWAVG | 0.628 ± 0.058
FVFAYLPSYEAM | 0.729 ± 0.023
DIGGLGYCDCVK | 0.758 ± 0.054
GYGSSVYAVQKL | 0.608 ± 0.0096
GSGAQVERCRWE | 0.719 ± 0.02
IQIGESLYFWFV | 0.654 ± 0.066
MLSFTQRYYSAI | 0.64 ± 0.03
LVILWDVLSVVP | 0.612 ± 0.049
DIGGTDYDPAIS | 0.7138 ± 0.0017

Sequence | protein stability index
IVGRGGRGGWGV | 0.685 ± 0.04
REYGVKRIEIKQ | 0.682 ± 0.04
SWLRPTCLDLYF | 0.76 ± 0.029
VKYSIEVKRKKK | 0.7181 ± 0.0039
GWRGRRGERARG | 0.749 ± 0.054
GLRQVPGDLAEG | 0.699 ± 0.039
SVSNSRCGRLML | 0.71 ± 0.046
SGPRVCPGMHWQ | 0.651 ± 0.013
SVSPRAPPILPP | 0.723 ± 0.058
ASQPNRIPSPPR | 0.71 ± 0.01
LESLWEAIRTLF | 0.5136 ± 0.005
PPSGPTDTQEQG | 0.661 ± 0.035
LPPPSPPSSAPP | 0.734 ± 0.049
SFVGPFCLTLSI | 0.596 ± 0.092
HTSKFKKQRKKR | 0.7975 ± 0.0022
LPPHRSSTPPPA | 0.644 ± 0.02
LGGGARGSGGGA | 0.727 ± 0.028
VGFSLGGFLFLF | 0.585 ± 0.096
HTNKNTTIQNKK | 0.702 ± 0.11
GPPPPPRPPLPP | 0.665 ± 0.049
PHPVPPRLPFPS | 0.747 ± 0.038
LFVPAASRLAFS | 0.686 ± 0.011
SSHWGRSRLASG | 0.674 ± 0.1
SLVAFAKMANFV | 0.633 ± 0.044
TAGAYSLSTGNH | 0.651 ± 0.024
PRTPAPAPTPRP | 0.682 ± 0.017

Sequence | protein stability index
LRCVPAVFFACK | 0.647 ± 0.045
FPSLLFSSPSAF | 0.7 ± 0.038
GGPGGGGVSDGM | 0.804 ± 0.14
RLLGRPFRHERG | 0.698 ± 0.043
LKNVKFTNNRKK | 0.694 ± 0.014
KGHQGGLSEGMI | 0.6 ± 0.092
RGSVDGTLQKPG | 0.6691 ± 0.00087
PSPIHSRQTQWF | 0.707 ± 0.015
SVATFDLHAGEW | 0.75 ± 0.01
RSVPHPGGPSPC | 0.649 ± 0.037
AGPGGSGGAGEP | 0.68 ± 0.026
GFVAGGVCSRPL | 0.715 ± 0.076
IIDKQENNLKSE | 0.7513 ± 0.0011
GQRWADGGFVEV | 0.783 ± 0.1
AQRGSTAASAGG | 0.683 ± 0.07
ITRDFQLWASDL | 0.708 ± 0.0083
PALPPRLPPPPL | 0.602 ± 0.019
SPLLPFPLPPSI | 0.718 ± 0.018
CQTRTKAKKTQV | 0.727 ± 0.0083
PLHPPSLPPSRS | 0.65 ± 0.059
GYLNWIDTRTSE | 0.79 ± 0.086
PHPLPLPPPVAP | 0.711 ± 0.031
PGCLMGSRGFSN | 0.785 ± 0.18
FSHPQPLLPFPV | 0.662 ± 0.0094
GASGGGQSSFGE | 0.669 ± 0.013
YLSVLQLRCFPA | 0.659 ± 0.019

Sequence | protein stability index
PPAPPSQPINAT | 0.709 ± 0.053
FYIQVFTPLGGS | 0.639 ± 0.0097
LDVGYVLGLERS | 0.681 ± 0.033
QHTHNRLRAAQD | 0.678 ± 0.029
PPFFLLLPPTIF | 0.67 ± 0.063
CLRGGGAGDGAS | 0.673 ± 0.048
GYRRELGVCSGD | 0.586 ± 0.08
GGGLGRVWVKLG | 0.716 ± 0.08
HVLRVWKMCVLE | 0.586 ± 0.033
IDLTLLRHPAYL | 0.732 ± 0.05
AGGGLGGGGGGP | 0.729 ± 0.031
GYPIIIFYSAVQ | 0.529 ± 0.051
PPSTNRDGRKRT | 0.644 ± 0.026
PFPQVPFPRLAY | 0.681 ± 0.066
VGKSNKYEETHK | 0.747 ± 0.06
FSKVLCSIVRGR | 0.655 ± 0.015
RTASRSVSTTQN | 0.745 ± 0.024
ALLPLTHLPLHP | 0.666 ± 0.1
QSPPILVPSSDV | 0.686 ± 0.067
ITALSSPVRDKL | 0.646 ± 0.061
